Source: publication PMC3664820 (Nucleic Acids Research, 2013)

Molecular target: the molecule itself
Assay: SEC

B1: Lac repressor (first 331 residues, dimeric, without the C-terminal tetramerization domain) (domain or fragment)
chain: MKPVTLYDVAEYAGVSYQTVSRVVNQASHVSAKTREKVEAAMAELNYIPNRVAQQLAGKQSLLIGVATSSLALHAPSQIVAAIKSRADQLGASVVVSMVERSGVEACKAAVHNLLAQRVSGLIINYPLDDQDAIAVEAACTNVPALFLDVSDQTPINSIIFSHEDGTRLGVEHLVALGHQQIALLAGPLSSVSARLRLAGWHKYLTRNQIQPIAEREGDWSAMSGFQQTMQMLNEGIVPTAMLVANDQMALGAMRAITESGLRVGADISVVGYDDTEDSSCYIPPLTTIKQDFRLLGQTSVDRLLQLSQGQAVKGNQLLPVSLVKRKTTLA
Q: Does B1 bind?
A: binds
